Experimental data: publication PMC12002316 (Proceedings of the National Academy of Sciences of the …, 2025)

Target: the molecule itself
Experiment: cryo-EM structure

B1: Chloroflexus aurantiacus F1FO ATP synthase c-subunit (natural protein, Chloroflexus aurantiacus J-10-fl, UniProt A9WGS9 1-76, looked up)
chain: MEGLNLVATALAVGLGAIGPGVGIGIIVSGAVQAIGRNPEIENRVVTYMFIGIAFTEALAIFGLVIAFLIGFGVLQ
With B1 the “stoichiometry N” value was 10.
